From US20220308072A1

Assays:
[1] = biological target: Recombinant, his tagged full length human frataxin protein (Abcam ab95502) (human) (UniProt Q16595); assay: Simoa sandwich 3-step; capture Ab-5
[2] = biological target: Recombinant, his tagged full length human frataxin protein (Abcam ab95502) (human) (UniProt Q16595); assay: Simoa sandwich 3-step; capture Ab-1; frataxin 100 pg/mL
[3] = biological target: Recombinant, his tagged full length human frataxin protein (Abcam ab95502) (human) (UniProt Q16595); assay: Simoa sandwich 3-step; capture Ab-3; frataxin 1000 pg/mL
[4] = biological target: Recombinant, his tagged full length human frataxin protein (Abcam ab95502) (human) (UniProt Q16595); assay: as above; remark: listed apart in the source
[5] = biological target: Recombinant, his tagged full length human frataxin protein (Abcam ab95502) (human) (UniProt Q16595); assay: Simoa sandwich 3-step; capture Ab-4
[6] = biological target: Recombinant, his tagged full length human frataxin protein (Abcam ab95502) (human) (UniProt Q16595); assay: Simoa sandwich 3-step; capture Ab-4; frataxin 1000 pg/mL
[7] = biological target: Recombinant, his tagged full length human frataxin protein (Abcam ab95502) (human) (UniProt Q16595); assay: Simoa sandwich 3-step; capture Ab-3
[8] = biological target: Recombinant, his tagged full length human frataxin protein (Abcam ab95502) (human) (UniProt Q16595); assay: Simoa sandwich 2-step; capture Ab-3; frataxin 18.5 pg/mL
[9] = biological target: Recombinant, his tagged full length human frataxin protein (Abcam ab95502) (human) (UniProt Q16595); assay: Simoa sandwich 2-step; capture Ab-3; frataxin 0.686 pg/mL
[10] = biological target: Recombinant, his tagged full length human frataxin protein (Abcam ab95502) (human) (UniProt Q16595); assay: Simoa sandwich 2-step; capture Ab-3; frataxin 2.06 pg/mL
[11] = biological target: Recombinant, his tagged full length human frataxin protein (Abcam ab95502) (human) (UniProt Q16595); assay: Simoa sandwich 3-step; capture Ab-5; frataxin 100 pg/mL
[12] = biological target: Recombinant, his tagged full length human frataxin protein (Abcam ab95502) (human) (UniProt Q16595); assay: Simoa sandwich 3-step; capture Ab-2; frataxin 10000 pg/mL
[13] = biological target: Recombinant, his tagged full length human frataxin protein (Abcam ab95502) (human) (UniProt Q16595); assay: Simoa sandwich 3-step; capture Ab-3; remark: listed apart in the source
[14] = biological target: Recombinant, his tagged full length human frataxin protein (Abcam ab95502) (human) (UniProt Q16595); assay: Simoa sandwich 2-step; capture Ab-3; frataxin 55.6 pg/mL
[15] = biological target: Recombinant, his tagged full length human frataxin protein (Abcam ab95502) (human) (UniProt Q16595); assay: Simoa sandwich 3-step; capture Ab-2; frataxin 1000 pg/mL
[16] = biological target: Recombinant, his tagged full length human frataxin protein (Abcam ab95502) (human) (UniProt Q16595); assay: Simoa sandwich 3-step; capture Ab-4; frataxin 100 pg/mL
[17] = biological target: Recombinant, his tagged full length human frataxin protein (Abcam ab95502) (human) (UniProt Q16595); assay: Simoa sandwich 3-step; capture Ab-2; frataxin 100 pg/mL
[18] = biological target: Recombinant, his tagged full length human frataxin protein (Abcam ab95502) (human) (UniProt Q16595); assay: Simoa sandwich 2-step; capture Ab-3
[19] = biological target: Recombinant, his tagged full length human frataxin protein (Abcam ab95502) (human) (UniProt Q16595); assay: Simoa sandwich 3-step; capture Ab-3; frataxin 100 pg/mL
[20] = biological target: Recombinant, his tagged full length human frataxin protein (Abcam ab95502) (human) (UniProt Q16595); assay: Simoa sandwich 2-step; capture Ab-3; frataxin 500 pg/mL
[21] = biological target: Recombinant, his tagged full length human frataxin protein (Abcam ab95502) (human) (UniProt Q16595); assay: Simoa sandwich 3-step; capture Ab-1
[22] = biological target: Recombinant, his tagged full length human frataxin protein (Abcam ab95502) (human) (UniProt Q16595); assay: Simoa sandwich 3-step; capture Ab-3; frataxin 100 pg/mL; remark: listed apart in the source
[23] = biological target: Recombinant, his tagged full length human frataxin protein (Abcam ab95502) (human) (UniProt Q16595); assay: Simoa sandwich 3-step; capture Ab-1; frataxin 1000 pg/mL
[24] = biological target: Recombinant, his tagged full length human frataxin protein (Abcam ab95502) (human) (UniProt Q16595); assay: Simoa sandwich 3-step; capture Ab-4; frataxin 10000 pg/mL
[25] = biological target: Recombinant, his tagged full length human frataxin protein (Abcam ab95502) (human) (UniProt Q16595); assay: Simoa sandwich 2-step; capture Ab-3; remark: listed apart in the source
[26] = biological target: Recombinant, his tagged full length human frataxin protein (Abcam ab95502) (human) (UniProt Q16595); assay: Simoa sandwich 3-step; capture Ab-1; frataxin 10000 pg/mL
[27] = biological target: Recombinant, his tagged full length human frataxin protein (Abcam ab95502) (human) (UniProt Q16595); assay: Simoa sandwich 2-step; capture Ab-3; frataxin 100 pg/mL
[28] = biological target: Recombinant, his tagged full length human frataxin protein (Abcam ab95502) (human) (UniProt Q16595); assay: Simoa sandwich 2-step; capture Ab-3; frataxin 167 pg/mL
[29] = biological target: Recombinant, his tagged full length human frataxin protein (Abcam ab95502) (human) (UniProt Q16595); assay: Simoa sandwich 3-step; capture Ab-2
[30] = biological target: Recombinant, his tagged full length human frataxin protein (Abcam ab95502) (human) (UniProt Q16595); assay: Simoa sandwich 3-step; capture Ab-5; frataxin 1000 pg/mL
[31] = biological target: Recombinant, his tagged full length human frataxin protein (Abcam ab95502) (human) (UniProt Q16595); assay: Simoa sandwich 2-step; capture Ab-3; frataxin 1000 pg/mL
[32] = biological target: Recombinant, his tagged full length human frataxin protein (Abcam ab95502) (human) (UniProt Q16595); assay: Simoa sandwich 2-step; capture Ab-3; frataxin 6.17 pg/mL

Chain of UniProt Q16595 (Q16595 42-210): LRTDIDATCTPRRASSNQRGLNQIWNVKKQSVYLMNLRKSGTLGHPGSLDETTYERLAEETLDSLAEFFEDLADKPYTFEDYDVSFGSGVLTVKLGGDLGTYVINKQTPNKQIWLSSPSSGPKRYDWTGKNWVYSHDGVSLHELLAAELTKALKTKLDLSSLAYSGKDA

## Ab-4, mouse monoclonal [17A11] to Frataxin (Abcam ab113691) (antibody)
[1]
  LOD: 6.44 pg/mL
[2]
  Ave AEB: 0.64 AEB
  S/B: 2.9
[3]
  Ave AEB: 12.8 AEB
  S/B: 160
[4]
  Ave AEB: 8.02 AEB
  S/B: 138
[5]
  LOD: 358 pg/mL
[6]
  Ave AEB: 0.0589 AEB
  S/B: 2.55
[7]
  LOD: 1.59 pg/mL
[8]
  Ave AEB: 1.31 AEB
  S/B: 11.4
[9]
  Ave AEB: 0.157 AEB
  S/B: 1.36
[10]
  Ave AEB: 0.259 AEB
  S/B: 2.25
[11]
  Ave AEB: 2.02 AEB
  S/B: 4.93
[12]
  Ave AEB: 32.9 AEB
  S/B: 183
[13]
  LOD: 2.41 pg/mL
[14]
  Ave AEB: 3.75 AEB
  S/B: 32.6
[15]
  Ave AEB: 7.32 AEB
  S/B: 40.7
[16]
  Ave AEB: 0.0213 AEB
  S/B: 0.93
[17]
  Ave AEB: 1.02 AEB
  S/B: 5.67
[18]
  LOD: 0.44 pg/mL
[19]
  Ave AEB: 0.68 AEB
  S/B: 11.7
[20]
  Ave AEB: 23.7 AEB
  S/B: 206
[21]
  LOD: 23.9 pg/mL
[22]
  Ave AEB: 1.34 AEB
  S/B: 16.8
[23]
  Ave AEB: 8.74 AEB
  S/B: 39.6
[24]
  Ave AEB: 0.82 AEB
  S/B: 35.6
[25]
  LOD: 0.36 pg/mL
[26]
  Ave AEB: 30.9 AEB
  S/B: 140
[27]
  Ave AEB: 5.1 AEB
  S/B: 67.6
[28]
  Ave AEB: 11.1 AEB
  S/B: 97
[29]
  LOD: 5.01 pg/mL
[30]
  Ave AEB: 18.6 AEB
  S/B: 45.4
[31]
  Ave AEB: 29.7 AEB
  S/B: 394
[32]
  Ave AEB: 0.56 AEB
  S/B: 4.87
